The record followed here is the DeepSol protein solubility set.

A short description of the data set: soluble on expression in E. coli; label from the status in PepcDB or PDB records.
Consider “MKTINLSIFGLGNVGLNLLRIIRSFNEENRLGLKFNVVFVADSLHSYYNERIDIGKVISYKEKGSLDSLEYESISASEALARDFDIVVDATPASADGKKELAFYKETFENGKDVVTANKSGLANFWPEIMEYARSNNRRIRYEATVAGGVPLFSFIDYSVLPSRIKKFRGIVSLTINYFIRELANKREFDDVLSEATKLGIVEKNYKDDLTGLDAARKSVILCNHLYGSSYRLSDVFYEGILDQDRSFGKNERLVTETGIVNGKPSAESRIKSLDSNDYLLTLGKGSLGYQLQTDTNGTLNVSDLYDGPYETAGAVMNDLVILSMFTV”, for which the “soluble on expression in E. coli” value is given as “soluble”. The value for “MKTITLRPGQMTLADLRHIYQHPVHITLDESAYVPIQQSVDCVQAILAEQRTAYGINTGFGLLASTRIATEDLENLQRSIVLSHAAGVGEANDDAIVRLIMVLKINSLARGFSGIRLEVIQALITLVNAGVYPHIPLKGSVGASGDLAPLAHMSLLLLGEGKARYQGEWLPAHTALAQAGLQPLTLAAKEGLALLNGTQVSAAYALRGLFEAEDLYAAASVFGCLTVDAALGSRSPFDARIHAVRGQRGQIDAASTYRHLLGERSEISESHKNCDKVQDPYSLRCQPQVMGACLGQIRQAAEVLAIESNAVSDNPLVFAEQGDVLSGGNFHAEPVAMAADNLALALAEVGSLSECRISLMMDKHMSQLPPFLVENGGVNSGFMIAQVTAAALTSENKGLAFPASVDSIPTSANQEDHVSMAPRAGKRLWEMAENVRNILAIEWLAACQGLDLRKGLRTSAILEPARQLLRQHVTYYDKDRFFAPDIEVASQLIAQRHMNELMPAKLLPSL” was “not soluble”.

For “MKTVMATGTFDIIHPGHGFFLEEARKLGGEDARLVVVLARDSTVRARKRTPIVGEKQRLEVVRMLKPVDEAYLGSETDMFEIVHRIKPDIIAIGPDQKFDVDELRDELRRRGLGCEVRRIEKYRDAELDSTCKIIKRIRSMEFDEDSLKNC”, the “soluble on expression in E. coli” value was “not soluble”. Take “MKTYNIPVEATLEVIGGKWKVVILCHLKKDKKRTCELKQLMSGITQKMLTQQLRELEEDGVIERKVYNQVPPKVEYSLTDYGHSLDSILDTLCNWGENHLEKNGNTSMLITAAE”: the “soluble on expression in E. coli” value is on record as “not soluble”. With “MKVAIIACQKMVEMGCPGKEACVSCFKAINEKSGAFERYKDVELVAFTTCGGCPGRRFPMRVKLLKTAAGAEAIHIANCTFLQPECPYINFDEICKKLMEELEIPIVFGTHTLVKKGEVVCTCGDNKE”, the “soluble on expression in E. coli” value is recorded as “not soluble”. Next, “MKVEKEFPLMNFSLRRLPLFILIKTRKQTIEMNLRKKGHGIFFSRFGVFISKKKNHINICTLLLTKHPYTKGFPRQNVVETILFRRNSKTHFGRPATRRRPLGEREVNPSARSLG”: “soluble”; “MKVIAVNGGPRKQWNTATLLHKALEGAQSAGAETDLFHLYDLNYKGCISCFGCKRKNSSRIGHCVLKDELTPLLEEVLKCDALLLGSPIYFGNVTGAMRSFLERLFFSLLSYNEGQRTVFPRKVASGFIYTMNVPEDFLPQLEHHHHHH”: “soluble”. Turning to “MKVIEVTHPIQSNQFITENVAMAFGFFDGMHRGHDKVFQVLDEKAKEHQLKKAVMTFDPHPSVVLNPERKRTTYLTPLSDKLEMIAEHGIDYCIVINFSSRFANVTSDDFIKNYIINNHVKEVIAGFDFTFGKFGKGNMTVLQESKAFNTTIVGKQEMDSEKISTTAIRQALTDGHLQKANDELGYIYRIKGTVVQGEKRGRTIGFPTANVQPSDDYVLPKKGVYAVSMEIGPESKLHRGVANVGVKPTFHDPTRAELVIEVNIFDFNENIYGERVTVYWHHFLRPEVKFDGIDPLVKQMNEDKAQAKHLLSIDFDDDISYNI”, the “soluble on expression in E. coli” value is given as “not soluble”. Next, “MKVLVSPMSVAEAIEAIEGGADIIDVKNPAEGSLGANFPWVIREISELAKKYGKEISATTGDMPYKPGTASLAALGAAVAGADYIKVGLYGVKNAEEAYEMMVGVVRAVKDFDSSKKVVAAGYGDYYRISSVSPLDLPEAVAKAGADIVMVDTAIKDGTSLFDHMKIGDIESFVKLARDNGLMVALAGNISWNHIETLKELSPDIIGVRSIVCEGDRSSMIKRELVVKLMEAVHG”: “not soluble”.
